# Assay results: IntAct's records for PubMed 32761762
# B1: NAD-dependent protein deacetylase sirtuin-1 (Homo sapiens), Q96EB6 (parent)
# chain: MADEAALALQPGGSPSAAGADREAASSPAGEPLRKRPRRDGPGLERSPGEPGGAAPEREVPAAARGCPGAAAAALWREAEAEAAAAGGEQEAQATAAAGEGDNGPGLQGPSREPPLADNLYDEDDDDEGEEEEEAAAAAIGYRDNLLFGDEIITNGFHSCESDEEDRASHASSSDWTPRPRIGPYTFVQQHLMIGTDPRTILKDLLPETIPPPELDDMTLWQIVINILSEPPKRKKRKDINTIEDAVKLLQECKKIIVLTGAGVSVSCGIPDFRSRDGIYARLAVDFPDLPDPQAMFDIEYFRKDPRPFFKFAKEIYPGQFQPSLCHKFIALSDKEGKLLRNYTQNIDTLEQVAGIQRIIQCHGSFATASCLICKYKVDCEAVRGDIFNQVVPRCPRCPADEPLAIMKPEIVFFGENLPEQFHRAMKYDKDEVDLLIVIGSSLKVRPVALIPSSIPHEVPQILINREPLPHLHFDVELLGDCDVIINELCHRLGGEYAKLCCNPVKLSEITEKPPRTQKELAYLSELPPTPLHVSEDSSSPERTSPPDSSVIVTLLDQAAKSNDDLDVSESKGCMEEKPQEVQTSRNVESIAEQMENPDLKNVGSSTGEKNERTSVAGTVRKCWPNRVAKEQISRRLDGNQYLFLPPNRYIFHGAEVYSDSEDDVLSSSSCGSNSDSGTCQSPSLEEPMEDESEIEEFYNGLEDEPDVPERAGGAGFGTDGDDQEAINEAISVKQEVTDMNYPSNKS
# partner: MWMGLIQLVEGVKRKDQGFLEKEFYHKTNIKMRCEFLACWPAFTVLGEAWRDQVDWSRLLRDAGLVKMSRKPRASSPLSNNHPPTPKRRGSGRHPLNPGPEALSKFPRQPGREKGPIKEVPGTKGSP
# Variants of: B1
# Settings: with csag2_human CSAG2, Q9Y5P2
row,effect of a mutation on the interaction,Variant
1,decreasing interaction,H363Y
